In patent publication US20260295010 (published 2026):
Substitutions are numbered along the chain they refer to. Numbers in names are those of the source. Where “and” joins values, the source holds several entries; their conditions need not be identical. Identical values can stand only once.

T1: IL-12RB2-hFc (human, UniProt Q99665)
T1 chain: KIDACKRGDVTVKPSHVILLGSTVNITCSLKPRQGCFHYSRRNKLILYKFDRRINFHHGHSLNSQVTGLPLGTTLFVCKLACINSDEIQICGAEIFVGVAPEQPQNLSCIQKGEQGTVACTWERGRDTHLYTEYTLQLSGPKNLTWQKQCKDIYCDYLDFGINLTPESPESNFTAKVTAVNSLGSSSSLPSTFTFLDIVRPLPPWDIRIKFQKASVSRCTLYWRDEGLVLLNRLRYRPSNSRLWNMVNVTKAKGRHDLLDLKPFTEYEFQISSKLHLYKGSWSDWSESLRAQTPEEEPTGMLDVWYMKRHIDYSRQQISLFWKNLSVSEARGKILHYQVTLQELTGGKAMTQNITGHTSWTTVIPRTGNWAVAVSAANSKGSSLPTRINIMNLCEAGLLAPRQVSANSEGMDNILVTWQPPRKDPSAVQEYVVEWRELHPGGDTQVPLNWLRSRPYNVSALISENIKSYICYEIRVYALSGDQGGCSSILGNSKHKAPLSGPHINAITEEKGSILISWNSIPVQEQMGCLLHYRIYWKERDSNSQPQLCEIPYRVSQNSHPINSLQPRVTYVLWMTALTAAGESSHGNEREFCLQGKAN

B1: IL-12p70 K265Y (protein)
chain 1: MIWELKKDVYVVELDWYPDAPGEMVVLTCDTPEEDGITWTLDQSSEVLGSGKTLTIQVKEFGDAGQYTCHKGGEVLSHSLLLLHKKEDGIWSTDILKDQKEPKNKTFLRCEAKNYSGRFTCWWLTTISTDLTFSVKSSRGSSDPQGVTCGAATLSAERVRGDNKEYEYSVECQEDSACPAAEESLPIEVMVDAVHKLKYENYTSSFFIRDIIKPDPPKNLQLKPLKNSRQVEVSWEYPDTWSTPHSYFSLTFSVQVQGKSKREKYDRVFTDKTSATVICRKNASISVRAQDRYYSSSWSEWASVPCSGGGSHHHHHH
chain 2: MRNLPVATPDPGMFPSLHHSQNLLRAVSNMLQKARQTLEFYPCTSEEIDHEDITKDKTSTVEACLPLELTKNESCLNSRETSFITNGSSLASRKTSFMMALCLSSIYEDLKMYQVEFKTMNAKLLMDPKRQIFLDQNMLAVIDELMQALNFNSETVPQKSSLEEPDFYKTKIKLCILLHAFRIRAVTIDRVMSYLNAS
B2: IL-12p70 D94K (protein)
chain 1: B1 chain 1 with D94K, Y265K
chain 2: B1 chain 2
B3: IL-12p70 K259Y (protein)
chain 1: B1 chain 1 with K259Y, Y265K
chain 2: B1 chain 2
B4: IL-12p70 L197A (protein)
chain 1: B1 chain 1 with L197A, Y265K
chain 2: B1 chain 2
B5: IL-12p70 p40-HIS6_C253S / p35_C16S_C89S (protein)
chain 1: B1 chain 1 with Y265K
chain 2: B1 chain 2
B6: IL-12p70 K105E K265Y (protein)
chain 1: B1 chain 1 with K105E
chain 2: B1 chain 2
B7: IL-12p70 K196E (protein)
chain 1: B1 chain 1 with K196E, Y265K
chain 2: B1 chain 2
B8: IL-12p70 K105E (protein)
chain 1: B1 chain 1 with K105E, Y265K
chain 2: B1 chain 2
B9: IL-12p70 W16A (protein)
chain 1: B1 chain 1 with W16A, Y265K
chain 2: B1 chain 2
B10: IL-12p70 K259Y K265Y (protein)
chain 1: B1 chain 1 with K259Y
chain 2: B1 chain 2
B11: IL-12p70 K105E K259Y K265Y (protein)
chain 1: B1 chain 1 with K105E, K259Y
chain 2: B1 chain 2
B12: IL-12p70 E87K,K196E,K198E (protein)
chain 1: B1 chain 1 with E87K, K196E, K198E, Y265K
chain 2: B1 chain 2

Molecular target: T1, IL-12RB2-hFc
Experiment: SPR, 25C

Kd	Binder
4.9 nM	B1
1.9 nM	B2
4 nM	B3
2.3 nM	B4
2.5 nM and 2.4 nM	B5
1.6 nM	B6
2.7 nM	B7
1.1 nM	B8
16 nM	B9
7 nM	B10
4 nM	B11

Molecular target: T2, IL-12RB1-hFc (human, UniProt P42701)
Experiment: SPR, 25C

Kd	Binder
0.51 nM	B1
0.44 nM	B2
0.87 nM	B3
0.31 nM	B4
0.3 nM and 0.11 nM	B5
1.1 nM	B6
0.7 nM	B7
0.5 nM	B8
1.4 nM	B10
1.8 nM	B11

Molecular target: T2, IL-12RB1-hFc
Experiment: SPR, 25C
Remark: another data set of the same source

koff [s⁻¹]	Binder
0.0705	B12
0.049	B9

Molecular target: T1, IL-12RB2-hFc
Experiment: SPR, 25C
Remark: another data set of the same source

Kd	Binder
1.6 nM	B1
1.2 nM	B2
1.1 nM	B3
0.55 nM	B4
0.75 nM and 0.34 nM	B5
0.61 nM	B12
0.42 nM	B7
0.56 nM	B8
0.62 nM	B9

Molecular target: T2, IL-12RB1-hFc
Experiment: SPR, 25C
Remark: another data set of the same source

Kd [nM]	Binder
0.11	B1
0.75	B2
0.08	B3
0.05	B4
0.04	B5
0.15	B7
0.13	B8
